Source: US20030208060A1

Experiments:
[1] = target: trypsinized VLDL Sf100-400, devoid of apoE (tryp-VLDL) (human) (UniProt P04114); assay: inhibition of 125I-tryp-VLDL1 binding to THP-1 macrophages, 4 °C, LpL 1.6 µg/ml
[2] = target: triglyceride-rich lipoproteins; assay: co-incubation with TGRLP, cell binding and ligand blots
[3] = target: trypsinized VLDL2 (tryp-VLDL2) (human) (UniProt P04114); assay: inhibition of 125I-tryp-VLDL2 binding to THP-1 macrophages, 4 °C, LpL 1.0 µg/ml

Percent Inhibition [1]: 26%
percent inhibition of specific binding [2]: 25%
Percent Inhibition [3]: 17%
B1: lipoprotein lipase (enzyme, UniProt P06858 28-475, looked up, species assumed)
Lipoprotein lipase: ADQRRDFIDIESKFALRTPEDTAEDTCHLIPGVAESVATCHFNHSSKTFMVIHGWTVTGMYESWVPKLVAALYKREPDSNVIVVDWLSRAQEHYPVSAGYTKLVGQDVARFINWMEEEFNYPLDNVHLLGYSLGAHAAGIAGSLTNKKVNRITGLDPAGPNFEYAEAPSRLSPDDADFVDVLHTFTRGSPGRSIGIQKPVGHVDIYPNGGTFQPGCNIGEAIRVIAERGLGDVDQLVKCSHERSIHLFIDSLLNEENPSKAYRCSSKEAFEKGLCLSCRKNRCNNLGYEINKVRAKRSSKMYLKTRSQMPYKVFHYQVKIHFSGTESETHTNQAFEISLYGTVAESENIPFTLPEVSTNKTYSFLIYTEVDIGELLMLKLKWKSDSYFSWSDWWSSPGFAIQKIRVKAGETQKKVIFCSREKVSHLQKGKAPAVFVKCHDKSLNKKSG
